Measurements: publication PMC8225859

Target: Low-density lipoprotein receptor-related protein 1 (LRP1) (mouse (endogenous in gonadal fat tissue))

- glucose uptake in 3T3-L1 mature adipocytes treated with 0, 0.5, 1, 2 uM r-m-APOA4 for 1 h; percent increase against buffer (~22% at 0.5 uM, ~34% at 1 uM, ~44% at 2 uM): 44%
B1: Apolipoprotein A4 (APOA4) in gonadal fat tissue of WT mice injected with recombinant mouse APOA4 (natural protein)
chain: EVTSDQVANVVWDYFTQLSNNAKEAVEQFQKTDVTQQLSTLFQDKLGDASTYADGVHNKLVPFVVQLSGHLAQETERVKEEIKKELEDLRDRMMPHANKVTQTFGENMQKLQEHLKPYAVDLQDQINTQTQEMKLQLTPYIQRMQTTIKENVDNLHTSMMPLATNLKDKFNRNMEELKGHLTPRANELKATIDQNLEDLRRSLAPLTVGVQEKLNHQMEGLAFQMKKNAEELQTKVSAKIDQLQKNLAPLVEDVQSKVKGNTEGLQKSLEDLNRQLEQQVEEFRRTVEPMGEMFNKALVQQLEQFRQQLGPNSGEVESHLSFLEKSLREKVNSFMSTLEKKGSPDQPQALPLPEQAQEQAQEQAQEQVQPKPLES
